Assay results from publication PMC9330073, “Cargo Recognition Mechanisms of Yeast Myo2 Revealed by AlphaFold2-Powered Protein Complex Prediction” (Biomolecules, 2022).
Positions count from the first letter of the chain named. Where two headings read alike, the source gives them in different places.

Assays:
[1] = target: GST-Pea2-CC1 (GST-tagged Pea2-CC1; dimer) (Saccharomyces cerevisiae (strain S288c)) (UniProt P40091); assay: ITC; 500 μM Myo2-GTD in the syringe titrated into 50 μM Kar9-MIS or Pea2-MIS in the cell, 25 °C; one-site binding model
[2] = target: Kar9^C (unstructured C-terminal region of Kar9) (Saccharomyces cerevisiae (strain S288c)) (UniProt P32526); assay: as above
[3] = target: Kar9^N (N-terminal folded domain of Kar9) (Saccharomyces cerevisiae (strain S288c)) (UniProt P32526); assay: as above
[4] = target: GST-Pea2-CC1 (GST-tagged Pea2-CC1; dimer) (Saccharomyces cerevisiae (strain S288c)) (UniProt P40091); assay: SEC-MALS; 100 μL of 100 μM protein on Superdex 200 Increase 10/300 GL; 50 mM Tris-HCl pH 7.5, 100 mM NaCl, 1 mM EDTA, 1 mM DTT
[5] = target: T1, Smy1-MIS::Myo2-GTD fusion protein (Saccharomyces cerevisiae | …); assay: ITC
T1 chain: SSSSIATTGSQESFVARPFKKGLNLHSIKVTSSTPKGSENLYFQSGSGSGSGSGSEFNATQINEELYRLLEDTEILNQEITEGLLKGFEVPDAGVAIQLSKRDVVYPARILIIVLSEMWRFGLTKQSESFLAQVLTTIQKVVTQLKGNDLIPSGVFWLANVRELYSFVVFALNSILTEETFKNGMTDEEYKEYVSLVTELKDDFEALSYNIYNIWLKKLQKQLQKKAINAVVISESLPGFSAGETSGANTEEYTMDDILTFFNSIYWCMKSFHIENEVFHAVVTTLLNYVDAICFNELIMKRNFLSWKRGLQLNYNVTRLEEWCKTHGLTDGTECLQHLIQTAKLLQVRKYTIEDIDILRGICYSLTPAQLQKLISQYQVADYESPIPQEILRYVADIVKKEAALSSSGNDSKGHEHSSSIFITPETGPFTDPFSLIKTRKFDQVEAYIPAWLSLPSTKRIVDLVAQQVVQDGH

[6] = target: T2, Myo2-GTD (globular tail domain of Myo2) (Saccharomyces cerevisiae (strain S288c), UniProt P19524 1152-1574); assay: ITC
T2 chain: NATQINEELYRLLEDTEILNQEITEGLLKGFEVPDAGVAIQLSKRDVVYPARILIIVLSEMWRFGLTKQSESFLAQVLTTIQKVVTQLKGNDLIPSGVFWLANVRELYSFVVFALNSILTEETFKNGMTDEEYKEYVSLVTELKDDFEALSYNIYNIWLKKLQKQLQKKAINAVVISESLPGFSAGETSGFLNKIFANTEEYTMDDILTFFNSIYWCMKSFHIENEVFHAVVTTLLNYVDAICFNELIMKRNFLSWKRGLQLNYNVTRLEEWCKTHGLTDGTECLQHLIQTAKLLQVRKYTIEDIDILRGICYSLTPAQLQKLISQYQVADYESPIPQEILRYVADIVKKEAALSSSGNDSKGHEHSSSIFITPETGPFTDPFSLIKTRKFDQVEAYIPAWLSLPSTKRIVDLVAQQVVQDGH

[7] = target: T3, Myo2-GTD L1331S (Saccharomyces cerevisiae (strain S288c)); assay: ITC
T3 chain: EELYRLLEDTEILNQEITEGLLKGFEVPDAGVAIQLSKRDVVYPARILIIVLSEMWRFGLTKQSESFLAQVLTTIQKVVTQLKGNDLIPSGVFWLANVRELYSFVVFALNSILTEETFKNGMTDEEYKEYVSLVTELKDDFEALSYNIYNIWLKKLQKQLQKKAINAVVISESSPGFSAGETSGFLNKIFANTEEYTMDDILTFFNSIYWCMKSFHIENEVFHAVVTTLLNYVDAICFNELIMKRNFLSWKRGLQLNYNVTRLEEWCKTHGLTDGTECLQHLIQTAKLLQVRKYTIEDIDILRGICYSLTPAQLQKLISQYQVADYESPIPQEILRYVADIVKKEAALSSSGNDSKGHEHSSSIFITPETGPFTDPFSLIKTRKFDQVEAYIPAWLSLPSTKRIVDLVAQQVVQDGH

[8] = target: T4, Myo2-GTD Y1303A (Saccharomyces cerevisiae); assay: ITC
T4 chain: T3 chain with Y146A, S174L

[9] = target: T5, Myo2-GTD D1297N (Saccharomyces cerevisiae); assay: ITC
T5 chain: T3 chain with D140N, S174L

[10] = target: T6, Myo2-GTD W1407A (Saccharomyces cerevisiae (strain S288c)); assay: ITC
T6 chain: T3 chain with S174L, W250A

[11] = target: T2, Myo2-GTD (globular tail domain of Myo2); assay: ITC

For “Myo2-GTD (globular tail domain of Myo2) (from UniProt P19524 1152-1574) (domain or fragment)”, the fold enhancement of the binding affinity over the Pea2-CC1 monomer [1] was 5 fold, the stoichiometry N [1] was 0.5 and the Kd [2] was 3 µM. It also gave a Kd [3] of 16 µM.

“GST-Pea2-CC1 (GST-tagged Pea2-CC1; dimer) (from UniProt P40091 235-327) (domain or fragment)” showed a stoichiometry N [4] of 2.

B1: Vac17-MIS (Myo2-interacting sequence of Vac17) (domain or fragment)
chain: PNEAPNDSPQSQSTRSSLGSFQPRPLKIIERQRLCMVTPSKPPKKS
modifications: Limits taken from 6IXQ: the fusion as Smy1-MIS, TEV site, SG linker, Myo2-GTD, assumed uncleaved as a single chain; the linker is part of the fusion
B1 showed a Kd [5] of 0.32 µM.

B2: GST-Pea2-CC1 (GST-tagged Pea2-CC1; dimer) (domain or fragment)
chain: AIQEEDSSKKLEELETAFSDLQLAHNFLTKQFENDRAEYVQDIEKLTRTNRELQDKLLNNHSNLSKTEKKLHELEQENKELEKANNKLNSSRH
modifications: N-terminal GST (pGEX-4T-1) left out; GST drives the dimerization Limits taken from 6IXQ: the fusion as Smy1-MIS, TEV site, SG linker, Myo2-GTD, assumed uncleaved as a single chain; the linker is part of the fusion
Work on B2 yielded a Kd [5] of 12 µM.

B3: Kar9^C-MIS (Myo2-interacting sequence in the C-terminal region of Kar9) (domain or fragment)
chain: ALKGKKLGKALLQKMNIKPATSPNSSNAINPFFDPESPNKGKLILSSVPPLPY
In the case of B3, the Kd [6] is reported as 7.7 µM, the Kd [7] is reported as 8.9 µM and the Kd [8] is reported as 7.1 µM. The Kd [9] was 7.7 µM and the Kd [10] was 7.5 µM.

With SSSSIATTGSQESFVARPFKKGLNLHSIKVTSSTPK (domain or fragment) [Smy1-MIS (Myo2-interacting sequence of Smy1)] the Kd [8] was 14 µM, the Kd [11] was 21 µM and the Kd [9] was 14 µM.

B4: Kar9 413-530 (protein)
chain: KKKIPKPKSLGFGRPNSVIGTITQDFQERVAINEGDSNKTPENSTTVALKGKKLGKALLQKMNIKPATSPNSSNAINPFFDPESPNKGKLILSSVPPLPYDETDETTLRVSRGENEKS
B4 gave a Kd [6] of 6.9 µM.

B5: Kar9^N (N-terminal folded domain of Kar9) (domain or fragment)
chain: MDNDGPRSMTIGDDFQENFCERLERIHNTLHSINDCNSLNESTTSISETLLVQFYDDLENVASVIPDLVNKKRLGKDDILLFMDWLLLKKYMLYQFISDVHNIEEGFAHLLDLLEDEFSKDDQDSDKYNRFSPMFDVIEESTQIKTQLEPWLTNLKELLDTSLEFNEISKDHMDTLHKIINSNISYCLEIQEERFASPIRHTPSFTLEQLVKLLGTHTETTEPKVPKFSPAEDILSRKFLNLKKNIPPIEKSLTDILPQRIVQFGHRNITNITTLQTILQKKYELIMKDYRFMNSEFRELKVELIDKRWNILFINLNHELLYILDEIERLQSKLLTTKYTKDITIRLERQLERKSKTVSKTFNIIYRALEFSLLDAGVASKTNELAQRWLNIKPTADKILIKSSASNKIATSKKKIPKPKSLGFGRPNSVIGTITQDFQERVAINEGDSNKTPENSTTVALKGKKLGKALLQKMNIKPATSPNSSNAINPFFDPESPNKGKLILSSVPPLPYDETDETTLRVSRGENEKSPDSFITSRHENKVQITETPLMAKNKSVLDIEKDKWNHYRSLPSRIPIYKDKVVKVTVENTPIAKVFQTPPTKITTPNSQVWVPSTRRRTRLRPPTPLSQLLSPREGRLDKTPTY
B5 showed a Kd [8] of 16 µM and a Kd [9] of 16 µM.

B6: Kar9^N (N-terminal folded domain of Kar9) (domain or fragment)
chain: B5 chain
modifications: Limits taken from 6IXQ: the fusion as Smy1-MIS, TEV site, SG linker, Myo2-GTD, assumed uncleaved as a single chain; the linker is part of the fusion
B6 gave a Kd [5] of 17 µM.

NHGFHLDILKGRK [Inp2] was tested, and the Kd [11] was 32 µM.

B7: Mmr1 (peptide)
chain: GNSARIPCPKTRLARVSVLDLKKIEEQPDSSSG
modifications: Limits taken from 6IXQ: the fusion as Smy1-MIS, TEV site, SG linker, Myo2-GTD, assumed uncleaved as a single chain; the linker is part of the fusion
For B7, the Kd [5] was 6.2 µM.

GNSARIPCPKTRLARVSVLDLKKIEEQPDSSSG gave a Kd [11] of 6.8 µM and a Kd [9] of 21 µM.
